According to paper PMC7376575 (The Biochemical journal, 2020):
Where a chain is given by its changes, count along the chain named.

T1: catalytic domain of MMP-1 (UniProt P03956 106-261)
T1 sequence: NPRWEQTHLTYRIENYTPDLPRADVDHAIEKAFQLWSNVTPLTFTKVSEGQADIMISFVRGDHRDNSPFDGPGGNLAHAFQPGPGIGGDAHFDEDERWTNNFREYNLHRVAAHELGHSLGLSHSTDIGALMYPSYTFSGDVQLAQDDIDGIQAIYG

T2: biotinylated catalytic domain of MMP-1 (UniProt P03956 106-261, biotin on Lys residues)
T2 sequence: T1 sequence

B1: N-TIMP2 V71R (domain or fragment)
chain: CSCSPVHPQQAFCNADVVIRAKAVSEKEVDSGNDIYGNPIKRIQYEIKQIKMFKGPEKDIEFIYTAPSSARCGVSLDVGGKKEYLIAGKAEGDGKMHITLCDFIVPWDTLSTTQKKSLNHRYQMGCE
modifications: native disulfides
B2: N-TIMP2 V71W (domain or fragment)
chain: B1 chain with R71W
modifications: native disulfides
B3: N-TIMP2 H97R (domain or fragment)
chain: B1 chain with R71V, H97R
modifications: native disulfides
B4: N-TIMP2 T99M (domain or fragment)
chain: B1 chain with R71V, T99M
modifications: native disulfides
B5: N-terminal domain of the tissue inhibitor of metalloproteinase 2, wild type (domain or fragment)
chain: B1 chain with R71V
B6: N-TIMP2 T99Q (domain or fragment)
chain: B1 chain with R71V, T99Q
modifications: native disulfides
B7: N-TIMP2 T99G (domain or fragment)
chain: B1 chain with R71V, T99G
modifications: native disulfides
B8: yeast-displayed N-TIMP2WT (domain or fragment)
chain: B1 chain with R71V
B9: N-TIMP2 S68E (domain or fragment)
chain: B1 chain with S68E, R71V
modifications: native disulfides
B10: N-TIMP2 S68M (domain or fragment)
chain: B1 chain with S68M, R71V
modifications: native disulfides

Legend:
[1] = target: T1, catalytic domain of MMP-1; experiment: enzyme inhibition assay
[2] = target: catalytic domain of MMP-3 (UniProt P08254 100-272); experiment: enzyme inhibition assay
[3] = target: catalytic domain of MMP-14 (UniProt P50281 112-292); experiment: enzyme inhibition assay
[4] = target: biotinylated catalytic domain of MMP-14 (UniProt P50281 112-292, biotin on Lys residues (EZ-Link sulfo-NHS-LC-LC-biotin)); experiment: flow cytometry on cells
[5] = target: T2, biotinylated catalytic domain of MMP-1; experiment: flow cytometry on cells
[6] = target: biotinylated catalytic domain of MMP-3 (UniProt P08254 100-272, biotin on Lys residues); experiment: flow cytometry on cells
Sequence of biotinylated catalytic domain of MMP-3 (P08254 100-272): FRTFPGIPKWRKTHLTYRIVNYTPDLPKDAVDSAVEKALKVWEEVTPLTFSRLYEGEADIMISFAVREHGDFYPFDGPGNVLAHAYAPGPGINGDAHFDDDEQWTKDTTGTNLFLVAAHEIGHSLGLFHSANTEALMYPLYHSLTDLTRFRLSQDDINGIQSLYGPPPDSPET

Sequence of catalytic domain of MMP-3 (P08254 100-272): as above

| Binder | Ki [1] [nM] | Ki [2] [nM] | Ki [3] [nM] | Kd [4] [nM] | Kd [5] [nM] | Kd [6] [nM] |
| --- | --- | --- | --- | --- | --- | --- |
| B1 | 5.59 | 86.2 | – | – | – | – |
| B2 | 2.99 | 26.4 | 34.3 | – | – | – |
| B3 | 0.031 | 1.31 | 0.125 | – | – | – |
| B4 | 0.085 | 8.29 | 2.05 | – | – | – |
| B5 | – | 1.34 | – | – | – | – |
| B6 | 0.099 | 3.72 | 3.92 | – | – | – |
| B7 | 0.08 | 4.24 | 0.534 | – | – | – |
| B8 | – | – | – | 48.2 | 3.22 | 36.2 |
| B9 | 0.249 | 4.71 | 1.42 | – | – | – |
| B10 | 0.181 | 3.29 | 2.6 | – | – | – |
